Eleven molecules from patent publication US20150344570A1 (published 2015) can be followed below.

To fix the notation:
B1: GpH7-B3 variant Q295_10E/GpL16-k0 (antibody, human IgG1, kappa)
heavy: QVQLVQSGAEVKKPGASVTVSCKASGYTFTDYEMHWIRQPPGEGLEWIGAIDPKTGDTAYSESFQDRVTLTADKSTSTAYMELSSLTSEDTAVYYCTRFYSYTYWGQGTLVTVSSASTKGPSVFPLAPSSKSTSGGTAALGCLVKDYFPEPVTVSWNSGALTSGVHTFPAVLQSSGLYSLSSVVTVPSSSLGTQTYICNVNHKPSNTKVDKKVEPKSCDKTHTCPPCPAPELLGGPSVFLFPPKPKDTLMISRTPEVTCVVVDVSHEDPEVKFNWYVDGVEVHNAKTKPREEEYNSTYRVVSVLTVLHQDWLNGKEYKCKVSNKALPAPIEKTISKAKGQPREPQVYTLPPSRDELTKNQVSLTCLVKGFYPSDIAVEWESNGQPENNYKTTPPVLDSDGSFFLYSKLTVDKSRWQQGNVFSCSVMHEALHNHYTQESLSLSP
light: DIVMTQSPLSLPVTPGEPASISCQASESLVHSNRNTYLHWYLQKPGQSPQLLIYKVSNRFSGVPDRFSGSGSGTDFTLKISRVEAEDVGVYYCSQNTHVPPTFGQGTKVEIERTVAAPSVFIFPPSDEQLKSGTASVVCLLNNFYPREAKVQWKVDNALQSGNSQESVTEQDSKDSTYSLSSTLTLSKADYEKHKVYACEVTHQGLSSPVTKSFNRGEC
notes: also called Ho Ab Q295_10E
B2: GpH7-B3 variant S298_14T/GpL16-k0 (antibody, human IgG1, kappa)
heavy: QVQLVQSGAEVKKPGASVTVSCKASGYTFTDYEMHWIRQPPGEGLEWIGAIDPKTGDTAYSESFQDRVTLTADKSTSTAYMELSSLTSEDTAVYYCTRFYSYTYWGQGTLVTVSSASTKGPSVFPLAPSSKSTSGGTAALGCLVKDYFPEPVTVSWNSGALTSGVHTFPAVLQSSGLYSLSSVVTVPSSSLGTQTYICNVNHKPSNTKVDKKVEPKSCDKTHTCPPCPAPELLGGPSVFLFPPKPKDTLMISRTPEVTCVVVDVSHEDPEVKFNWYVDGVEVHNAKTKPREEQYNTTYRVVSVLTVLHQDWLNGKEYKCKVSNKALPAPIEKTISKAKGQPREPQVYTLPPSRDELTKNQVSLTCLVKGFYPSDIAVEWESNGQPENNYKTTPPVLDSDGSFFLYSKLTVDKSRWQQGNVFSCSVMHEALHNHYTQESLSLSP
light: DIVMTQSPLSLPVTPGEPASISCQASESLVHSNRNTYLHWYLQKPGQSPQLLIYKVSNRFSGVPDRFSGSGSGTDFTLKISRVEAEDVGVYYCSQNTHVPPTFGQGTKVEIERTVAAPSVFIFPPSDEQLKSGTASVVCLLNNFYPREAKVQWKVDNALQSGNSQESVTEQDSKDSTYSLSSTLTLSKADYEKHKVYACEVTHQGLSSPVTKSFNRGEC
notes: also called Ho Ab S298_14T
B3: GpH7-B3 variant K334_15Y/GpL16-k0 (antibody, human IgG1, kappa)
heavy: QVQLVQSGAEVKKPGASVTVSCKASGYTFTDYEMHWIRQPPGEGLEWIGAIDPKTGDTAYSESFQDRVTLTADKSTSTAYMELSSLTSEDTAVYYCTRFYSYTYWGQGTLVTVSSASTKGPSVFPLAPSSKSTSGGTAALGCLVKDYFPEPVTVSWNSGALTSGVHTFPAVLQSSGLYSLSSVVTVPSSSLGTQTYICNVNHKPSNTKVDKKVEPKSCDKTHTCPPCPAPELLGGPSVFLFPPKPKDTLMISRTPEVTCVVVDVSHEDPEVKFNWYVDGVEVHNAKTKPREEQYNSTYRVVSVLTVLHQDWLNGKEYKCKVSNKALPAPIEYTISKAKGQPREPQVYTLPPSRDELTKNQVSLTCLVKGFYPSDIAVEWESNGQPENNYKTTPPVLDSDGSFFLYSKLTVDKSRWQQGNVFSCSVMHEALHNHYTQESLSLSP
light: DIVMTQSPLSLPVTPGEPASISCQASESLVHSNRNTYLHWYLQKPGQSPQLLIYKVSNRFSGVPDRFSGSGSGTDFTLKISRVEAEDVGVYYCSQNTHVPPTFGQGTKVEIERTVAAPSVFIFPPSDEQLKSGTASVVCLLNNFYPREAKVQWKVDNALQSGNSQESVTEQDSKDSTYSLSSTLTLSKADYEKHKVYACEVTHQGLSSPVTKSFNRGEC
notes: also called Ho Ab K334_15Y
B4: GpH7-B3 variant S239_09D/GpL16-k0 (antibody, human IgG1, kappa)
heavy: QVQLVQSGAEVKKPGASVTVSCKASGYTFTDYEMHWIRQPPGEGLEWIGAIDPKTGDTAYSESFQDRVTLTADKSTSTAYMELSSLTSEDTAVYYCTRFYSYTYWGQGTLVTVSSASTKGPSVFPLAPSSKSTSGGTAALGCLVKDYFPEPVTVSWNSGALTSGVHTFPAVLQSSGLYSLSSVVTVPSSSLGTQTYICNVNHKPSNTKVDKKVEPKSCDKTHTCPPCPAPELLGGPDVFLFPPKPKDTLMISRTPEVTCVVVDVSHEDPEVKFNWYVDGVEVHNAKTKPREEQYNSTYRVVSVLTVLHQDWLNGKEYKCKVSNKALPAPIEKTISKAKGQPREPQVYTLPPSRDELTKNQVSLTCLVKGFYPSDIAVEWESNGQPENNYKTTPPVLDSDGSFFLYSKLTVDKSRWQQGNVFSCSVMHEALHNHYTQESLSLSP
light: DIVMTQSPLSLPVTPGEPASISCQASESLVHSNRNTYLHWYLQKPGQSPQLLIYKVSNRFSGVPDRFSGSGSGTDFTLKISRVEAEDVGVYYCSQNTHVPPTFGQGTKVEIERTVAAPSVFIFPPSDEQLKSGTASVVCLLNNFYPREAKVQWKVDNALQSGNSQESVTEQDSKDSTYSLSSTLTLSKADYEKHKVYACEVTHQGLSSPVTKSFNRGEC
notes: also called Ho Ab S239_09D
B5: GpH7-B3 variant S337_10E/GpL16-k0 (antibody, human IgG1, kappa)
heavy: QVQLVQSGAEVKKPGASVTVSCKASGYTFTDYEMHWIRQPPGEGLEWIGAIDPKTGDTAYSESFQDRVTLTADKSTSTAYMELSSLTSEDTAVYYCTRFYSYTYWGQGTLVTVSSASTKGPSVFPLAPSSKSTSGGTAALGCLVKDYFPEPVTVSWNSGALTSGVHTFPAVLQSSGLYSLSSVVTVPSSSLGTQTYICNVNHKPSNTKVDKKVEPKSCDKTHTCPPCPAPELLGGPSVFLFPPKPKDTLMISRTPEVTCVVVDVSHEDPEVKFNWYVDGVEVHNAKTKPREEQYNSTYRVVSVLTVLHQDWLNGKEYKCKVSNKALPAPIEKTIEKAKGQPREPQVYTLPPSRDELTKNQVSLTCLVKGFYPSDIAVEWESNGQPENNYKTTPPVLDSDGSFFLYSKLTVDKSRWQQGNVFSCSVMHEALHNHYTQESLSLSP
light: DIVMTQSPLSLPVTPGEPASISCQASESLVHSNRNTYLHWYLQKPGQSPQLLIYKVSNRFSGVPDRFSGSGSGTDFTLKISRVEAEDVGVYYCSQNTHVPPTFGQGTKVEIERTVAAPSVFIFPPSDEQLKSGTASVVCLLNNFYPREAKVQWKVDNALQSGNSQESVTEQDSKDSTYSLSSTLTLSKADYEKHKVYACEVTHQGLSSPVTKSFNRGEC
notes: also called Ho Ab S337_10E
B6: GpH7-B3 variant S337_18N/GpL16-k0 (antibody, human IgG1, kappa)
heavy: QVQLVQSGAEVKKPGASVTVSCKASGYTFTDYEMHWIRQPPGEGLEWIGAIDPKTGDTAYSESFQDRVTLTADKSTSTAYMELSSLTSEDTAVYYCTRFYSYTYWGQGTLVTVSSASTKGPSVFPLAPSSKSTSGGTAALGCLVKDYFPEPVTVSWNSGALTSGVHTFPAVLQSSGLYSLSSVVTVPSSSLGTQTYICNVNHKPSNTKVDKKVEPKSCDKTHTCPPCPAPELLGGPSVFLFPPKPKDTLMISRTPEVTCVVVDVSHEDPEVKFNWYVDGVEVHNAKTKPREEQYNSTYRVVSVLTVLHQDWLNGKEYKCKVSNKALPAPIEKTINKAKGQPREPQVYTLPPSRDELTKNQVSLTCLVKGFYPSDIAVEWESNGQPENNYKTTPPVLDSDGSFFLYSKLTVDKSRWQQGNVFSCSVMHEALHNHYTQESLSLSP
light: DIVMTQSPLSLPVTPGEPASISCQASESLVHSNRNTYLHWYLQKPGQSPQLLIYKVSNRFSGVPDRFSGSGSGTDFTLKISRVEAEDVGVYYCSQNTHVPPTFGQGTKVEIERTVAAPSVFIFPPSDEQLKSGTASVVCLLNNFYPREAKVQWKVDNALQSGNSQESVTEQDSKDSTYSLSSTLTLSKADYEKHKVYACEVTHQGLSSPVTKSFNRGEC
notes: also called Ho Ab S337_18N
B7: GpH7-B3 variant K334_18N/GpL16-k0 (antibody, human IgG1, kappa)
heavy: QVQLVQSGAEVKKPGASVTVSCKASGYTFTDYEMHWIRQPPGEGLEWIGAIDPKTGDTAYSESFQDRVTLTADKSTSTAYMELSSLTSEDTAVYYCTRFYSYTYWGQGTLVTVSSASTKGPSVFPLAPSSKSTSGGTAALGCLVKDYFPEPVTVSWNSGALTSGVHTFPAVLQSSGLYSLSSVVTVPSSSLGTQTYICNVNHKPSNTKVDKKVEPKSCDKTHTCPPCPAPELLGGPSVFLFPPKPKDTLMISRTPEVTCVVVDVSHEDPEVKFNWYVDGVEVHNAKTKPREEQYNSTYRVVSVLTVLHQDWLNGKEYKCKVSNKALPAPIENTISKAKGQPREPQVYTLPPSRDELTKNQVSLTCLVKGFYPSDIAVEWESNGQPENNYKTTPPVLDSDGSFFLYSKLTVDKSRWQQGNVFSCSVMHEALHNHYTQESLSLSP
light: DIVMTQSPLSLPVTPGEPASISCQASESLVHSNRNTYLHWYLQKPGQSPQLLIYKVSNRFSGVPDRFSGSGSGTDFTLKISRVEAEDVGVYYCSQNTHVPPTFGQGTKVEIERTVAAPSVFIFPPSDEQLKSGTASVVCLLNNFYPREAKVQWKVDNALQSGNSQESVTEQDSKDSTYSLSSTLTLSKADYEKHKVYACEVTHQGLSSPVTKSFNRGEC
notes: also called Ho Ab K334_18N
B8: GpH7-B3 variant S267_02A/GpL16-k0 (antibody, human IgG1, kappa)
heavy: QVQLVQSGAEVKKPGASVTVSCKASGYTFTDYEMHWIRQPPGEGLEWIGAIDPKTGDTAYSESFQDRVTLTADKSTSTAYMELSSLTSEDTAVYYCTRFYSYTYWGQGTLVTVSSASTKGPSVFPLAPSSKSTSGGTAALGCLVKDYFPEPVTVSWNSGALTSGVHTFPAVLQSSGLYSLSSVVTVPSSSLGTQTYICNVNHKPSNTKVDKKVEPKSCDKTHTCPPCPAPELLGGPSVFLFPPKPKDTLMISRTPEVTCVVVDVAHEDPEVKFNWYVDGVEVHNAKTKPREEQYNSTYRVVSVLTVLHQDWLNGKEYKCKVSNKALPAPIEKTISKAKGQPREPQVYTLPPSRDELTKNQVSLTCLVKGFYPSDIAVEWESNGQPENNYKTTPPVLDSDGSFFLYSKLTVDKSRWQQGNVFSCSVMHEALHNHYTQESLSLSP
light: DIVMTQSPLSLPVTPGEPASISCQASESLVHSNRNTYLHWYLQKPGQSPQLLIYKVSNRFSGVPDRFSGSGSGTDFTLKISRVEAEDVGVYYCSQNTHVPPTFGQGTKVEIERTVAAPSVFIFPPSDEQLKSGTASVVCLLNNFYPREAKVQWKVDNALQSGNSQESVTEQDSKDSTYSLSSTLTLSKADYEKHKVYACEVTHQGLSSPVTKSFNRGEC
notes: also called Ho Ab S267_02A
B9: GpH7-B3 variant K334_19Q/GpL16-k0 (antibody, human IgG1, kappa)
heavy: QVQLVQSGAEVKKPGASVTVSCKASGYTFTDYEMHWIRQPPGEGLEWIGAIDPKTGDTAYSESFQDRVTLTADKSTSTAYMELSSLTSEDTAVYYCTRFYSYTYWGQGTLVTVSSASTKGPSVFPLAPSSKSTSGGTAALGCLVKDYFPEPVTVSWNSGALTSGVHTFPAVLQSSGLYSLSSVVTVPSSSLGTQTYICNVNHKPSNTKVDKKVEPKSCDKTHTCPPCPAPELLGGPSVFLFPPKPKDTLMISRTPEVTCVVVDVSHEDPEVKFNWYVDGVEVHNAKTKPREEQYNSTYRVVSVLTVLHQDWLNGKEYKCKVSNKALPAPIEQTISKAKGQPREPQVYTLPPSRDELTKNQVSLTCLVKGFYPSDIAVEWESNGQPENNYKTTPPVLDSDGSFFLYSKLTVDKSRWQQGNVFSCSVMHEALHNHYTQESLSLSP
light: DIVMTQSPLSLPVTPGEPASISCQASESLVHSNRNTYLHWYLQKPGQSPQLLIYKVSNRFSGVPDRFSGSGSGTDFTLKISRVEAEDVGVYYCSQNTHVPPTFGQGTKVEIERTVAAPSVFIFPPSDEQLKSGTASVVCLLNNFYPREAKVQWKVDNALQSGNSQESVTEQDSKDSTYSLSSTLTLSKADYEKHKVYACEVTHQGLSSPVTKSFNRGEC
notes: also called Ho Ab K334_19Q
B10: GpH7-B3 variant Q295_02A/GpL16-k0 (antibody, human IgG1, kappa)
heavy: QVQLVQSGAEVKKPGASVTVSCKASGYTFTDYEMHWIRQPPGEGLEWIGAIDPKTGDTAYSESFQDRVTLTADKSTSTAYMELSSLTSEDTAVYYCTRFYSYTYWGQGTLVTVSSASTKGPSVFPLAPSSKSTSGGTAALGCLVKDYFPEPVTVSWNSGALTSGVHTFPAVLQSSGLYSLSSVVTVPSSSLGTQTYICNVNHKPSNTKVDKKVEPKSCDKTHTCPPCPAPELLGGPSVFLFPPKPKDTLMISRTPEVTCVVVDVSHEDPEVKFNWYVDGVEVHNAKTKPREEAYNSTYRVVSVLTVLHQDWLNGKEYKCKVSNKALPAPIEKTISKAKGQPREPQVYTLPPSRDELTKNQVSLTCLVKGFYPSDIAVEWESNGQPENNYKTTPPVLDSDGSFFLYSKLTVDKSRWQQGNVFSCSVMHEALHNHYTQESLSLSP
light: DIVMTQSPLSLPVTPGEPASISCQASESLVHSNRNTYLHWYLQKPGQSPQLLIYKVSNRFSGVPDRFSGSGSGTDFTLKISRVEAEDVGVYYCSQNTHVPPTFGQGTKVEIERTVAAPSVFIFPPSDEQLKSGTASVVCLLNNFYPREAKVQWKVDNALQSGNSQESVTEQDSKDSTYSLSSTLTLSKADYEKHKVYACEVTHQGLSSPVTKSFNRGEC
notes: also called Ho Ab Q295_02A
B11: GpH7-B3 variant Q295_14T/GpL16-k0 (antibody, human IgG1, kappa)
heavy: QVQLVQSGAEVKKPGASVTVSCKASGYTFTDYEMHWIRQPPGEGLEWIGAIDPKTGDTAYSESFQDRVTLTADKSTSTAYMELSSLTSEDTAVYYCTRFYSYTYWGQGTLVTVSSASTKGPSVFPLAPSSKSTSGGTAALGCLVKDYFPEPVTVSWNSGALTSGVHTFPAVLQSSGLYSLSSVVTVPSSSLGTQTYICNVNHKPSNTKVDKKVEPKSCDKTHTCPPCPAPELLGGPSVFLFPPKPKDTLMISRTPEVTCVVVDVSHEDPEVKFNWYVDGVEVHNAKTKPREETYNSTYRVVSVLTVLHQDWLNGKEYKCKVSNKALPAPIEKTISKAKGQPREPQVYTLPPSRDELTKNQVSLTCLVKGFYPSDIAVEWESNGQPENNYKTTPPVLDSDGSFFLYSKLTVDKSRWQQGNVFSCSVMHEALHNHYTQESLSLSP
light: DIVMTQSPLSLPVTPGEPASISCQASESLVHSNRNTYLHWYLQKPGQSPQLLIYKVSNRFSGVPDRFSGSGSGTDFTLKISRVEAEDVGVYYCSQNTHVPPTFGQGTKVEIERTVAAPSVFIFPPSDEQLKSGTASVVCLLNNFYPREAKVQWKVDNALQSGNSQESVTEQDSKDSTYSLSSTLTLSKADYEKHKVYACEVTHQGLSSPVTKSFNRGEC
notes: also called Ho Ab Q295_14T

The target of the experiment is T1, FcγRIIIa extracellular domain with C-terminal His tag (human, UniProt P08637 17-208).
T1 construct: extracellular domain; also called FcgRIIIa; 3a; not shown: His tag attached to the C terminus
T1 sequence (P08637 17-208): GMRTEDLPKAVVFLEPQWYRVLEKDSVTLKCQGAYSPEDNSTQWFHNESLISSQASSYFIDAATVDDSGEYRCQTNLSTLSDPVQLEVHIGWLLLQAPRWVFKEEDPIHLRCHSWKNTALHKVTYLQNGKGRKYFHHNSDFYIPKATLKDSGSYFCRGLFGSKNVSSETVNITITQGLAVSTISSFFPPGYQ
Description: SPR Biacore, captured antibody, FcγR analyte, relative binding. How it is done: Analysis of interaction between objective antibody and the FcγR was carried out using Biacore T100 (GE Healthcare). HBS-EP+ (GE Healthcare) was used as the running buffer, and the measurement temperature was set to 25° C. Chips produced by immobilizing the antigen peptide by the amine coupling method to a Series S Sencor Chip CM5 (GE Healthcare), or alternatively, chips produced by allowing preliminarily biotinylated antigen peptides to interact with and immobilize onto a Series S Sensor Chip SA (certified) (GE Healthcare) were used. Antibodies of interest were captured onto an antigen peptide-immobilized chip, and allowed to interact to each FcγR diluted with running buffer. To regenerate and repeatedly use the chip, the antibodies captured on the chip were washed off by reacting 10 mM glycine-HCl, pH 1.5.
On the technique in general: In SPR one partner is held on a chip, and binding of the other changes the refractive index at the surface.
Take B1: the Ho/Con_3a is 111 % of HoCon Ab GpH7-B3/GpL16-k0 (=100).

Take B2: the Ho/Con_3a was 107 % of HoCon Ab GpH7-B3/GpL16-k0 (=100).

Turning to B3, the Ho/Con_3a is 181 % of HoCon Ab GpH7-B3/GpL16-k0 (=100).

Take B4: the Ho/Con_3a was 192 % of HoCon Ab GpH7-B3/GpL16-k0 (=100).

For B5, the Ho/Con_3a was 100 % of HoCon Ab GpH7-B3/GpL16-k0 (=100).

Consider B6, for which the Ho/Con_3a was 102 % of HoCon Ab GpH7-B3/GpL16-k0 (=100).

With B7, the Ho/Con_3a is 156 % of HoCon Ab GpH7-B3/GpL16-k0 (=100).

On to B8, for which the Ho/Con_3a is 145 % of HoCon Ab GpH7-B3/GpL16-k0 (=100).

As for B9, the Ho/Con_3a is 150 % of HoCon Ab GpH7-B3/GpL16-k0 (=100).

On to B10, for which the Ho/Con_3a is 108 % of HoCon Ab GpH7-B3/GpL16-k0 (=100).

Regarding B11, the Ho/Con_3a is 108 % of HoCon Ab GpH7-B3/GpL16-k0 (=100).
